Test results taken from publication PMC3037364.

Molecular target: TgAMA1, intact full-length integral membrane form (Toxoplasma gondii (endogenous in RH strain parasites)) (UniProt B6KAM0)
UniProt B6KAM0, sequence (B6KAM0 67-569): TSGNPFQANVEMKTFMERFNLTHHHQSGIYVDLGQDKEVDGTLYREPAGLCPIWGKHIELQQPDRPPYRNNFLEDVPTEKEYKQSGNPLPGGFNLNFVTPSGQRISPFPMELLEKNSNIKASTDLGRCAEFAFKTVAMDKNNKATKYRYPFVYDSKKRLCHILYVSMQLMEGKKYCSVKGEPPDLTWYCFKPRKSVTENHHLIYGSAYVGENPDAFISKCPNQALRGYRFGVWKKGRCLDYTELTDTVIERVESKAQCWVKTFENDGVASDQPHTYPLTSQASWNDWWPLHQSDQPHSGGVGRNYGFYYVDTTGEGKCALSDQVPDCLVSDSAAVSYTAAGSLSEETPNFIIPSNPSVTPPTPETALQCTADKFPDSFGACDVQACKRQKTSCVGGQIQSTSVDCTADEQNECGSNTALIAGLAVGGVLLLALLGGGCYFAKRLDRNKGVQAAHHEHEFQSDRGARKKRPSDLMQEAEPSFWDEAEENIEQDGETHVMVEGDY

## GST-domain 3 (D3) of TgRON2 (domain or fragment)
  decrease in invasion efficiency of RHΔama1/AMA1-myc parasites (about 10% of wild-type TgAMA1 level) after pre-incubation with 2.5-5 µM GST-D3, relative to buffer control: 87%
